Data on one molecule can be found in PMC4627807, “Klotho Regulates 14-3-3ζ Monomerization and Binding to the ASK1 Signaling Complex in Response to Oxidative Stress” (PLoS ONE, 2015).

For one experiment, the target named is T1, 14-3-3ζ (human (endogenous in HEK 293), UniProt P63104 1-245).
T1 construct: 14-3-3ζ, endogenous in HEK 293 cells; Klotho treatment of the cells raises phosphorylation at Ser-58 and the monomer level; the phosphorylated form was not isolated as a molecule of its own; also called 14-3-3zeta; endogenous 14-3-3ζ; source: endogenous, HEK 293 lysate
T1 sequence (looked up): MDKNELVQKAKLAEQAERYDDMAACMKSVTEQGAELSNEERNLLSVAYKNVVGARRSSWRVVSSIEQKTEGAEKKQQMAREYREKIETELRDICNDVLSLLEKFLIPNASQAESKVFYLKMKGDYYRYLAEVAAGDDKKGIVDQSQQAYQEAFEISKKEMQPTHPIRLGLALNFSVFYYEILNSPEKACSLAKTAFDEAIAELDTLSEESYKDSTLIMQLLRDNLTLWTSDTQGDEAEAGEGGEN
Put plainly: co-IP; endogenous proteins; HEK 293 lysate precipitated with 14-3-3ζ antibody, protein A agarose; Trx by Western blot; cells treated with buffer, 200 pM Klotho or NAC for 40 min; Trx released from the beads only with DTT, 2-ME or THP. Conditions: partners not purified. On the technique in general: In western blotting, separated proteins are transferred to a membrane and probed.

Experiment [1] deals with GST-tagged 14-3-3ζ dimer deficient mutant (Dm) (UniProt P63104). Kind of experiment: pull-down; lysates of HEK 293 cells transfected with GST-14-3-3ζ Wt or Dm adsorbed onto glutathione sepharose, binding buffer 20 mM Tris-Cl pH 7.5, 2 mM EDTA, 1 mM EGTA, 80 mM NaCl; endogenous Trx by Western blot; cells treated with buffer or secreted Klotho for 40 min.

B1: thioredoxin (Trx) (natural protein, human (endogenous in HEK 293), UniProt P10599 1-105, looked up)
chain: MVKQIESKTAFQEALDAAGDKLVVVDFSATWCGPCKMIKPFFHSLSEKYSNVIFLEVDVDDCQDVASECEVKCMPTFQFFKKGQKVGEFSGANKEKLEATINELV
notes: thioredoxin (Trx), endogenous in HEK 293 cells; active site cysteines named as Cys32/35; Detected by Western blot or iCE with a Trx antibody; source: endogenous, HEK 293 lysate
Regarding B1, the “fold increase of bound Trx, Klotho-treated versus buffer-treated cells” value in the experiment with 14-3-3ζ is approximately 2 fold. For the same molecule, the fold increase of bound Trx relative to 14-3-3ζwt in experiment [1] was determined as 2 fold.
